Test results taken from IntAct's records for PubMed 31515488.

B1: E3 ubiquitin-protein ligase MARCHF5 (Homo sapiens), Q9NX47 (parent)
chain: MPDQALQQMLDRSCWVCFATDEDDRTAEWVRPCRCRGSTKWVHQACLQRWVDEKQRGNSTARVACPQCNAEYLIVFPKLGPVVYVLDLADRLISKACPFAAAGIMVGSIYWTAVTYGAVTVMQVVGHKEGLDVMERADPLFLLIGLPTIPVMLILGKMIRWEDYVLRLWRKYSNKLQILNSIFPGIGCPVPRIPAEANPLADHVSATRILCGALVFPTIATIVGKLMFSSVNSNLQRTILGGIAFVAIKGAFKVYFKQQQYLRQAHRKILNYPEQEEA
partner: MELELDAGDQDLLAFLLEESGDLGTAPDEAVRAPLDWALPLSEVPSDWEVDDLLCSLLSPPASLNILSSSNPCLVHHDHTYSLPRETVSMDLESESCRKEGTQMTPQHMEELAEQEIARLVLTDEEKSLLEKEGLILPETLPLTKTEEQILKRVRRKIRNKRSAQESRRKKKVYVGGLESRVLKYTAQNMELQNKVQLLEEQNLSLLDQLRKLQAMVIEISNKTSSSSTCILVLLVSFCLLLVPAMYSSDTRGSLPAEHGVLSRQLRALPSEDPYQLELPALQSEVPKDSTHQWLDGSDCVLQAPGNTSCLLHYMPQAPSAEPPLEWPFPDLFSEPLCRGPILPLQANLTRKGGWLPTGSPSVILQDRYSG
B2: Protein DDI1 homolog 1 (Homo sapiens), Q8WTU0 (parent)
chain: MLITVYCVRRDLSEVTFSLQVSPDFELRNFKVLCEAESRVPVEEIQIIHMERLLIEDHCSLGSYGLKDGDIVVLLQKDNVGPRAPGRAPNQPRVDFSGIAVPGTSSSRPQHPGQQQQRTPAAQRSQGLASGEKVAGLQGLGSPALIRSMLLSNPHDLSLLKERNPPLAEALLSGSLETFSQVLMEQQREKALREQERLRLYTADPLDREAQAKIEEEIRQQNIEENMNIAIEEAPESFGQVTMLYINCKVNGHPLKAFVDSGAQMTIMSQACAERCNIMRLVDRRWAGVAKGVGTQRIIGRVHLAQIQIEGDFLQCSFSILEDQPMDMLLGLDMLRRHQCSIDLKKNVLVIGTTGTQTYFLPEGELPLCSRMVSGQDESSDKEITHSVMDSGRKEH
partner: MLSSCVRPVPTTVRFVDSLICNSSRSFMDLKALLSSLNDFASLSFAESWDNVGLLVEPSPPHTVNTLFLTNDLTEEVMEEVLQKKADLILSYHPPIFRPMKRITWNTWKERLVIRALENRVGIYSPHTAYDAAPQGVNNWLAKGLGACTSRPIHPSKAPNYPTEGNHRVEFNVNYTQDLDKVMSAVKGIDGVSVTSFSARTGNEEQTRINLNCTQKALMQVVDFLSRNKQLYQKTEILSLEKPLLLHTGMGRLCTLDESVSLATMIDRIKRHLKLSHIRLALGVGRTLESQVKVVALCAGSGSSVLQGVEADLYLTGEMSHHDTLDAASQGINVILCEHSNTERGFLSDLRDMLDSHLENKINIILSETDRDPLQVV
B3: Dynein light chain Tctex-type 3 (Homo sapiens), P51808 (parent)
chain: MEEYHRHCDEVGFNAEEAHNIVKECVDGVLGGEDYNHNNINQWTASIVEQSLTHLVKLGKAYKYIVTCAVVQKSAYGFHTASSCFWDTTSDGTCTVRWENRTMNCIVNVFAIAIVL
B4: Alpha-ketoglutarate-dependent dioxygenase alkB homolog 4 (Homo sapiens), Q9NXW9 (parent)
chain: MAAAAAETPEVLRECGCKGIRTCLICERQRGSDPPWELPPAKTYRFIYCSDTGWAVGTEESDFEGWAFPFPGVMLIEDFVTREEEAELVRLMDRDPWKLSQSGRRKQDYGPKVNFRKQKLKTEGFCGLPSFSREVVRRMGLYPGLEGFRPVEQCNLDYCPERGSAIDPHLDDAWLWGERLVSLNLLSPTVLSMCREAPGSLLLCSAPSAAPEALVDSVIAPSRSVLCQEVEVAIPLPARSLLVLTGAARHQWKHAIHRRHIEARRVCVTFRELSAEFGPGGRQQELGQELLRIALSFQGRPV
B5: Cyclin-H (Homo sapiens), P51946 (parent)
chain: MYHNSSQKRHWTFSSEEQLARLRADANRKFRCKAVANGKVLPNDPVFLEPHEEMTLCKYYEKRLLEFCSVFKPAMPRSVVGTACMYFKRFYLNNSVMEYHPRIIMLTCAFLACKVDEFNVSSPQFVGNLRESPLGQEKALEQILEYELLLIQQLNFHLIVHNPYRPFEGFLIDLKTRYPILENPEILRKTADDFLNRIALTDAYLLYTPSQIALTAILSSASRAGITMESYLSESLMLKENRTCLSQLLDIMKSMRNLVKKYEPPRSEEVAVLKQKLERCHSAELALNVITKKRKGYEDDDYVSKKSKHEEEEWTDDDLVESL
partner: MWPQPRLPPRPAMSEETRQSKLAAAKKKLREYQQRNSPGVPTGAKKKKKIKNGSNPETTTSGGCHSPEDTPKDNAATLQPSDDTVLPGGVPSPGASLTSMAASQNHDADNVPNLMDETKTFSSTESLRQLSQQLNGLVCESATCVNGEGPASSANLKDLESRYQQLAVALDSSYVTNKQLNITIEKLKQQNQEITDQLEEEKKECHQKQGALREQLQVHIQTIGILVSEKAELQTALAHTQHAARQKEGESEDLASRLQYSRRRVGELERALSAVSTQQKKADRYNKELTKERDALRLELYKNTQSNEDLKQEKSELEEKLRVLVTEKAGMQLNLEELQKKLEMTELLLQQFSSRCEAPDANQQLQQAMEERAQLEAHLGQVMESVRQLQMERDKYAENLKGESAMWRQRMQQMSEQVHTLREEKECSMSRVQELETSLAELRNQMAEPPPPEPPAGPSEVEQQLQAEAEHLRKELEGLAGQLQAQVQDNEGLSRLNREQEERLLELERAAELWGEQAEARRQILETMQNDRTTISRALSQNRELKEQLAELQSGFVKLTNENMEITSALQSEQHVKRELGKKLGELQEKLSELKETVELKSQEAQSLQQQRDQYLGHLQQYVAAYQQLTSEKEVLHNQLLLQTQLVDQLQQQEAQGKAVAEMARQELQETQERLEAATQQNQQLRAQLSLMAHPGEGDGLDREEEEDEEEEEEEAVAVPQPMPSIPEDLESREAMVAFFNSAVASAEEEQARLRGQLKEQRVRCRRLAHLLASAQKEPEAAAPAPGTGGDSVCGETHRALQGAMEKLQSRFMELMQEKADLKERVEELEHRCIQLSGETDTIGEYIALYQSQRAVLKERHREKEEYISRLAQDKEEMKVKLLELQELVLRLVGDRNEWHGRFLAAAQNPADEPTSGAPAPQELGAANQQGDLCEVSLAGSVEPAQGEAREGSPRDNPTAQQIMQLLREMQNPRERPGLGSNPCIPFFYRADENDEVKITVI
B6: Fructose-bisphosphate aldolase C (Homo sapiens), P09972 (parent)
chain: MPHSYPALSAEQKKELSDIALRIVAPGKGILAADESVGSMAKRLSQIGVENTEENRRLYRQVLFSADDRVKKCIGGVIFFHETLYQKDDNGVPFVRTIQDKGIVVGIKVDKGVVPLAGTDGETTTQGLDGLSERCAQYKKDGADFAKWRCVLKISERTPSALAILENANVLARYASICQQNGIVPIVEPEILPDGDHDLKRCQYVTEKVLAAVYKALSDHHVYLEGTLLKPNMVTPGHACPIKYTPEEIAMATVTALRRTVPPAVPGVTFLSGGQSEEEASFNLNAINRCPLPRPWALTFSYGRALQASALNAWRGQRDNAGAATEEFIKRAEVNGLAAQGKYEGSGEDGGAAAQSLYIANHAY
partner: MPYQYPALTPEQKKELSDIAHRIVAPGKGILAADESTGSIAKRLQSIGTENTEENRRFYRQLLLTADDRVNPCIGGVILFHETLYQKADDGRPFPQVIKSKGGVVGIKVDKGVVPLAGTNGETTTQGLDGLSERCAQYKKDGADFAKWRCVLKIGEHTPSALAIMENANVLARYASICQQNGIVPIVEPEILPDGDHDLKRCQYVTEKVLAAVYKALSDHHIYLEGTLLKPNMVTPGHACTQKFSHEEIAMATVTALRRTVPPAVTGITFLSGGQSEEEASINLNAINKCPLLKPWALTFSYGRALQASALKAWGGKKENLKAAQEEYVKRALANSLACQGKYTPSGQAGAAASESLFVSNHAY

Variants of: B1
Details: with creb3_human CREB3, O43889

Row | Variant | effect of a mutation on the interaction
1 | D202N | with no effect
2 | T20A | with no effect

Variants of: B2
Details: with nif3l_human NIF3L1, Q9GZT8

Row | Variant | effect of a mutation on the interaction
3 | S63A | with no effect
4 | D323N | with no effect
5 | G136S | with no effect
6 | R87C | with no effect
7 | N228T | with no effect
8 | R208G | with no effect

Variants of: B3
Details: with dc1i2_human DYNC1I2, Q13409
Sequence of dc1i2_human DYNC1I2, Q13409 (Q13409 whole entry): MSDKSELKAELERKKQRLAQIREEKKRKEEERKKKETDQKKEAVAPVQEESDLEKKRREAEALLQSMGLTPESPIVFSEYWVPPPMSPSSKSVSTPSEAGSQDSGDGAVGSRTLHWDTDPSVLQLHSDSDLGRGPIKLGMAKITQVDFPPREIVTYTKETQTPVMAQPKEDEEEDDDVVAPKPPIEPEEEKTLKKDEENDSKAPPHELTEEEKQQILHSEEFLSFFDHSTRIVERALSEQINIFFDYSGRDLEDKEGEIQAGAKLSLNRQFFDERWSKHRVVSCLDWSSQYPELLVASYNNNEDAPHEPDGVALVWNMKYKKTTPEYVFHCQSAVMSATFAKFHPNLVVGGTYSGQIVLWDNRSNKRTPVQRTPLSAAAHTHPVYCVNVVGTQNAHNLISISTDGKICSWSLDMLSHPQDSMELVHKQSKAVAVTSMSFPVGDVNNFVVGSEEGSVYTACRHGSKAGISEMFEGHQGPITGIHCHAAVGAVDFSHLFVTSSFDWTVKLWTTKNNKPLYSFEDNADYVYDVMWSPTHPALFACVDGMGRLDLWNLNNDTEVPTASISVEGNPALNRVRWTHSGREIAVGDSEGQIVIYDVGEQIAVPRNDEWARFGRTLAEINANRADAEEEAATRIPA

Row | Variant | effect of a mutation on the interaction
9 | A75T | with no effect

Variants of: B4
Details: with dtx2_human DTX2, Q86UW9
Sequence of dtx2_human DTX2, Q86UW9 (Q86UW9 whole entry): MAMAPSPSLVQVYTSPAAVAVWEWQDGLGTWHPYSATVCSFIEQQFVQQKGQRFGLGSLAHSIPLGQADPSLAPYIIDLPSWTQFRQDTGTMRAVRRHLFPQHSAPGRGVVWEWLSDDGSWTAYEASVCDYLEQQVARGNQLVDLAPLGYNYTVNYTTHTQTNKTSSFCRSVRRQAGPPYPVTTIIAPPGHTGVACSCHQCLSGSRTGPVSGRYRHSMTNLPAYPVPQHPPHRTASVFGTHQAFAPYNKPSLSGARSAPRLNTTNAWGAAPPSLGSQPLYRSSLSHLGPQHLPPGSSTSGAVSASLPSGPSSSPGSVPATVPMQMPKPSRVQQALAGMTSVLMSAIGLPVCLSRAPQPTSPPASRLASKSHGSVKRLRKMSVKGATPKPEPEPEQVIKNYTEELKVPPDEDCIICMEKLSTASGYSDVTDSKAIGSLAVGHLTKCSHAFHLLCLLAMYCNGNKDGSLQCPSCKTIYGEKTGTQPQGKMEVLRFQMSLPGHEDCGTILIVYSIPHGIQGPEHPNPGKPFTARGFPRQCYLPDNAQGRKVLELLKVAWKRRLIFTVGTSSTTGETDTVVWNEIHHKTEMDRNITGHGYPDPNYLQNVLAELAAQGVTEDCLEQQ

Row | Variant | effect of a mutation on the interaction
10 | R239C | with no effect

Variants of: B5
Details: with goga2_human GOLGA2, Q08379

Row | Variant | effect of a mutation on the interaction
11 | N155T | disrupting interaction strength

Variants of: B6
Details: with aldoa_human ALDOA

Row | Variant | effect of a mutation on the interaction
12 | N312S | with no effect
